Biological target: the molecule itself
Assay: SDS-PAGE under DTT-free conditions with western blot

| Protein | stoichiometry N |
| --- | --- |
| FLAG-tagged PRDX1 C83A expressed in HEK293 cells (natural protein, UniProt Q06830 1-199, looked up) MSSGNAKIGHPAPNFKATAVMPDGQFKDISLSDYKGKYVVFFFYPLDFTFVCPTEIIAFSDRAEEFKKLNCQVIGASVDSHFAHLAWVNTPKKQGGLGPMNIPLVSDPKRTIAQDYGVLKADEGISFRGLFIIDDKGILRQITVNDLPVGRSVDETLRLVQAFQFTDKHGEVCPAGWKPGSDTIKPDVQKSKEYFSKQK | 2 |
| FLAG-tagged WT PRDX1 expressed in HEK293 cells (natural protein, UniProt Q06830 1-199, looked up) MSSGNAKIGHPAPNFKATAVMPDGQFKDISLSDYKGKYVVFFFYPLDFTFVCPTEIIAFSDRAEEFKKLNCQVIGASVDSHFCHLAWVNTPKKQGGLGPMNIPLVSDPKRTIAQDYGVLKADEGISFRGLFIIDDKGILRQITVNDLPVGRSVDETLRLVQAFQFTDKHGEVCPAGWKPGSDTIKPDVQKSKEYFSKQK | 2 |
